# Reference: patent publication US20200262877A1, “ION CHANNEL-BINDING PEPTIDES AND METHODS OF USE THEREOF” (priority 2017, published 2020)
# Tests used:
# 5HT3a = biological target: T1, 5HT3a (Homo sapiens, UniProt P46098); assay: Ion channel panel (IonWorks Barracuda): 5HT3a; format: cell-based
# T1 construct: host or cells: HEK293 or CHO
# T1 sequence (P46098 whole entry, looked up): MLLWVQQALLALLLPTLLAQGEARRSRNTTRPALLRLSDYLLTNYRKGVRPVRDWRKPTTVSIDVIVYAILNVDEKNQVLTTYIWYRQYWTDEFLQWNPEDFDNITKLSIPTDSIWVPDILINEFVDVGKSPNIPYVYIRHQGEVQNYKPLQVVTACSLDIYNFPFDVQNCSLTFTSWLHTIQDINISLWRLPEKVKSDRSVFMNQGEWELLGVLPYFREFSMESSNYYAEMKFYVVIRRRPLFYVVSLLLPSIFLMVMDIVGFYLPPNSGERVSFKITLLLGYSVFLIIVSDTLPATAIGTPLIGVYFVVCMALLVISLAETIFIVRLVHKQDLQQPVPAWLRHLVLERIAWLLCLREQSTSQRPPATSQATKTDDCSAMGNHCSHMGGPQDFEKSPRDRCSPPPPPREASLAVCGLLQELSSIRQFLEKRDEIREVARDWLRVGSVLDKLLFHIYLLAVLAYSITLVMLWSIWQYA
# Summary of the method: (§1)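 Transfected HEK293 or CHO cells were exposed for at least 5 min to peptides at 200 nM and 20 μM final, tested in duplicate, in HEPES-buffered physiological saline. Activation was taken as peptide-plus-agonist current over control current ×100, and inhibition as 1 minus that ratio ×100. Each channel's control was its own reference compound.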
# α3β4 = biological target: T2, α3β4 (Homo sapiens, UniProt P30926+P32297); assay: Ion channel panel (IonWorks Barracuda): α3β4; format: cell-based; conditions: 100% = no change, <100% = inhibition
# T2 construct: host or cells: HEK293 or CHO
# Summary of the method: as §1
# α4β2 = biological target: T3, α4β2 (Homo sapiens, UniProt P17787+P43681); assay: Ion channel panel (IonWorks Barracuda): α4β2; format: cell-based; conditions: 100% = no change, <100% = inhibition
# T3 construct: host or cells: HEK293 or CHO
# Summary of the method: as §1
# Cav2.1 = biological target: T4, Cav2.1 (Homo sapiens, UniProt O00555); assay: cell-based; conditions: 100% = no change, <100% = inhibition
# T4 construct: host or cells: HEK293 or CHO
# Summary of the method: as §1
# Cav2.2 = biological target: T5, Cav2.2 (Homo sapiens, UniProt Q00975); assay: cell-based; conditions: 100% = no change, <100% = inhibition
# T5 construct: host or cells: HEK293 or CHO
# Summary of the method: as §1
# Kv2.1 = biological target: T6, Kv2.1 (Homo sapiens, UniProt Q14721); assay: cell-based; conditions: 100% = no change, <100% = inhibition
# T6 construct: host or cells: HEK293 or CHO
# Summary of the method: as §1
# GABA = assay: Ion channel panel (IonWorks Barracuda): GABA; format: cell-based; conditions: 100% = no change, <100% = inhibition
# Summary of the method: as §1
# Nav1.5 = Nav1.5 (Homo sapiens, UniProt Q14524); assay: in vitro; conditions: 100% = no change; for Activity of Nav1.5 with peptide, expressed as a percentage of the reference compound: peptide at 0.2 μM; for Activity of Nav1.5 with peptide (percentage of the reference compound): peptide at 20 μM
# Chain of Nav1.5 (Q14524 whole entry): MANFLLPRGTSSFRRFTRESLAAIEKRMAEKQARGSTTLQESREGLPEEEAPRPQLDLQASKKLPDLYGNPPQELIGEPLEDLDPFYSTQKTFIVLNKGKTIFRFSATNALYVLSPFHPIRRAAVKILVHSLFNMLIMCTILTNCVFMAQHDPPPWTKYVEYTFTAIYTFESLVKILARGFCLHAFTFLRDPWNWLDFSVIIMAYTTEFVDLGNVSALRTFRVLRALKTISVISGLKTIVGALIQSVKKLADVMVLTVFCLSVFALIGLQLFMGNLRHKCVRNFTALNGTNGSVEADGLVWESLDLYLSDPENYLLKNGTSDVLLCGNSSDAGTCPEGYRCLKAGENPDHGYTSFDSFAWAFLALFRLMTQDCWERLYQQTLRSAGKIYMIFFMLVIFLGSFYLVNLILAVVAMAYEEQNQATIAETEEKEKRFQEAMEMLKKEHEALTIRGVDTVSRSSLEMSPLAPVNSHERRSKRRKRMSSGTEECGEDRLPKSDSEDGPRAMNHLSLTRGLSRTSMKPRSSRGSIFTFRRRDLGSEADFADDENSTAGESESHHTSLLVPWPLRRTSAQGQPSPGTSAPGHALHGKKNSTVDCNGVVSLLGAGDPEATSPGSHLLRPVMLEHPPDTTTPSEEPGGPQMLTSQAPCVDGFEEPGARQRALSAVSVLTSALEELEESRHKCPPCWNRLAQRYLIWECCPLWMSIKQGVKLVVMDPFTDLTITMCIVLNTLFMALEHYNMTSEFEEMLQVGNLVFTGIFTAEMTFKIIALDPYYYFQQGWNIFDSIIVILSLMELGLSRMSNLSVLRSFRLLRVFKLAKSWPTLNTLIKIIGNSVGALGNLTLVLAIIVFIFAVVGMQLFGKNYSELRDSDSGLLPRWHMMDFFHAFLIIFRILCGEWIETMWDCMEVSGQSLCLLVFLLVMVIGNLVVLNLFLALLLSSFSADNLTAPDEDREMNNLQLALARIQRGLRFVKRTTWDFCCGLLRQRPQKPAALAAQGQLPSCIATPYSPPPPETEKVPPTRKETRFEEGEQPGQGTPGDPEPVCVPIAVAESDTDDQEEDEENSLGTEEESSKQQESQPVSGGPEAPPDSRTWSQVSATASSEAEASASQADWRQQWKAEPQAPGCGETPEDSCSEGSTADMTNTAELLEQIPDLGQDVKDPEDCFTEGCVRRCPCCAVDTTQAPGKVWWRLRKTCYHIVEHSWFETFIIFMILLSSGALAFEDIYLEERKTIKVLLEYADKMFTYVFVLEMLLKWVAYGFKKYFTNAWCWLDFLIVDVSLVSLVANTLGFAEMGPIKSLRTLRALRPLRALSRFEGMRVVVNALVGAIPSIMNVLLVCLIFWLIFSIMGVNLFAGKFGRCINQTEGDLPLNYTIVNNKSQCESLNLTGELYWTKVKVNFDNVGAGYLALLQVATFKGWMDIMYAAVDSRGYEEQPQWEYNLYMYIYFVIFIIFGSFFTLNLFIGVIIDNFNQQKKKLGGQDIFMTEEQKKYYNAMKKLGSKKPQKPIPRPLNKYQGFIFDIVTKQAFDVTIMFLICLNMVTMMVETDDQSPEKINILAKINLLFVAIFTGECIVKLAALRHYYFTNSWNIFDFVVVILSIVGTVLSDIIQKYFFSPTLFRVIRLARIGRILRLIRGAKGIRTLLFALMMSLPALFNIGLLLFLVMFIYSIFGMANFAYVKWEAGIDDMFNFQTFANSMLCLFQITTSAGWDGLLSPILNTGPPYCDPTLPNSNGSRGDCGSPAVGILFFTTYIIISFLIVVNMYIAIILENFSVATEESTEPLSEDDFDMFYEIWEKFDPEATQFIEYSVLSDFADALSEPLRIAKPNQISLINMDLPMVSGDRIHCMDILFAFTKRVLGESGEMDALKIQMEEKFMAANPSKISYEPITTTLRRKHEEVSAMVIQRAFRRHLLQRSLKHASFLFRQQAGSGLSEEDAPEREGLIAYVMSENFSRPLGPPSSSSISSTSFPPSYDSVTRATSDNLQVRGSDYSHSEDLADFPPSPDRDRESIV
# Summary of the method: as §1
# hERG = hERG (Homo sapiens, UniProt Q12809); assay: in vitro; conditions: 100% = no change, <100% = inhibition
# Summary of the method: as §1
# Kir2.1 = biological target: T7, Kir2.1 (Homo sapiens, UniProt P63252); assay: Ion channel panel (IonWorks Barracuda): Kir2.1; format: cell-based; conditions: 100% = no change, <100% = inhibition
# T7 construct: host or cells: HEK293 or CHO
# T7 sequence (P63252 whole entry): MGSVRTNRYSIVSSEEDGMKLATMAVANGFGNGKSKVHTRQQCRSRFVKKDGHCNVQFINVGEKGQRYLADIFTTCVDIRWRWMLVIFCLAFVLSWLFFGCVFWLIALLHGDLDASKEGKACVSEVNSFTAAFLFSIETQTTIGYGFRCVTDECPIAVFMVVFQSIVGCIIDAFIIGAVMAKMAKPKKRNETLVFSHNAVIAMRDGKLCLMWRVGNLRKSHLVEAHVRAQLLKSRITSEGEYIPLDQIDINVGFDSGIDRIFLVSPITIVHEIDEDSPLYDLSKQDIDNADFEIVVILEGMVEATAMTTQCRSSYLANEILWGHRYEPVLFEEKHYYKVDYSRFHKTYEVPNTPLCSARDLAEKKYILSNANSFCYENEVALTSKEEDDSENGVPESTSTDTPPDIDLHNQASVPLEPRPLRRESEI
# Summary of the method: as §1
# Kv1.1 = biological target: T8, Kv1.1 (Homo sapiens, UniProt Q09470); assay: cell-based; format: cell-based; conditions: 100% = no change, <100% = inhibition
# T8 construct: host or cells: HEK293 or CHO
# Summary of the method: as §1
# Kv1.2 = biological target: T9, Kv1.2 (Homo sapiens, UniProt P16389); assay: cell-based; format: cell-based; conditions: 100% = no change, <100% = inhibition
# T9 construct: host or cells: HEK293 or CHO
# T9 sequence (P16389 whole entry): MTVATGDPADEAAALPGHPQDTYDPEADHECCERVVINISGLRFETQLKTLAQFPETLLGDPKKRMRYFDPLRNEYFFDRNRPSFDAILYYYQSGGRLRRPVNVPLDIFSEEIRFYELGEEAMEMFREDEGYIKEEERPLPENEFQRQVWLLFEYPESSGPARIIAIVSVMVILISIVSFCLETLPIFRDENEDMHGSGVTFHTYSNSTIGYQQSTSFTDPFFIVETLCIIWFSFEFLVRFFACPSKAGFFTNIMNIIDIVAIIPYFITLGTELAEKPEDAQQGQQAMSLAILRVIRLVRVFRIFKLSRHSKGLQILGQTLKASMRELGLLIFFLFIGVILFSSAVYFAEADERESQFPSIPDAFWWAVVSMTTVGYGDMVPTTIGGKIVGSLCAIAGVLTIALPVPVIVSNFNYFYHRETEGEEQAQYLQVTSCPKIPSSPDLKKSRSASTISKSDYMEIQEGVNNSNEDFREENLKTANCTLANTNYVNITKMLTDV
# Summary of the method: as §1
# Kv1.3 = biological target: T10, Kv1.3 (Homo sapiens, UniProt P22001); assay: cell-based; format: cell-based; conditions: 100% = no change, <100% = inhibition
# T10 construct: host or cells: HEK293 or CHO
# Summary of the method: as §1
# Nav1.7 = biological target: T11, Nav1.7 (Homo sapiens, UniProt Q15858); assay: cell-based; format: cell-based; conditions: 100% = no change; for Activity of Nav1.7 with peptide, expressed as a percentage of the reference compound: peptide at 0.2 μM; for Activity of Nav1.7 with peptide (percentage of the reference compound): peptide at 20 μM
# T11 construct: host or cells: HEK293 or CHO
# T11 sequence (Q15858 whole entry): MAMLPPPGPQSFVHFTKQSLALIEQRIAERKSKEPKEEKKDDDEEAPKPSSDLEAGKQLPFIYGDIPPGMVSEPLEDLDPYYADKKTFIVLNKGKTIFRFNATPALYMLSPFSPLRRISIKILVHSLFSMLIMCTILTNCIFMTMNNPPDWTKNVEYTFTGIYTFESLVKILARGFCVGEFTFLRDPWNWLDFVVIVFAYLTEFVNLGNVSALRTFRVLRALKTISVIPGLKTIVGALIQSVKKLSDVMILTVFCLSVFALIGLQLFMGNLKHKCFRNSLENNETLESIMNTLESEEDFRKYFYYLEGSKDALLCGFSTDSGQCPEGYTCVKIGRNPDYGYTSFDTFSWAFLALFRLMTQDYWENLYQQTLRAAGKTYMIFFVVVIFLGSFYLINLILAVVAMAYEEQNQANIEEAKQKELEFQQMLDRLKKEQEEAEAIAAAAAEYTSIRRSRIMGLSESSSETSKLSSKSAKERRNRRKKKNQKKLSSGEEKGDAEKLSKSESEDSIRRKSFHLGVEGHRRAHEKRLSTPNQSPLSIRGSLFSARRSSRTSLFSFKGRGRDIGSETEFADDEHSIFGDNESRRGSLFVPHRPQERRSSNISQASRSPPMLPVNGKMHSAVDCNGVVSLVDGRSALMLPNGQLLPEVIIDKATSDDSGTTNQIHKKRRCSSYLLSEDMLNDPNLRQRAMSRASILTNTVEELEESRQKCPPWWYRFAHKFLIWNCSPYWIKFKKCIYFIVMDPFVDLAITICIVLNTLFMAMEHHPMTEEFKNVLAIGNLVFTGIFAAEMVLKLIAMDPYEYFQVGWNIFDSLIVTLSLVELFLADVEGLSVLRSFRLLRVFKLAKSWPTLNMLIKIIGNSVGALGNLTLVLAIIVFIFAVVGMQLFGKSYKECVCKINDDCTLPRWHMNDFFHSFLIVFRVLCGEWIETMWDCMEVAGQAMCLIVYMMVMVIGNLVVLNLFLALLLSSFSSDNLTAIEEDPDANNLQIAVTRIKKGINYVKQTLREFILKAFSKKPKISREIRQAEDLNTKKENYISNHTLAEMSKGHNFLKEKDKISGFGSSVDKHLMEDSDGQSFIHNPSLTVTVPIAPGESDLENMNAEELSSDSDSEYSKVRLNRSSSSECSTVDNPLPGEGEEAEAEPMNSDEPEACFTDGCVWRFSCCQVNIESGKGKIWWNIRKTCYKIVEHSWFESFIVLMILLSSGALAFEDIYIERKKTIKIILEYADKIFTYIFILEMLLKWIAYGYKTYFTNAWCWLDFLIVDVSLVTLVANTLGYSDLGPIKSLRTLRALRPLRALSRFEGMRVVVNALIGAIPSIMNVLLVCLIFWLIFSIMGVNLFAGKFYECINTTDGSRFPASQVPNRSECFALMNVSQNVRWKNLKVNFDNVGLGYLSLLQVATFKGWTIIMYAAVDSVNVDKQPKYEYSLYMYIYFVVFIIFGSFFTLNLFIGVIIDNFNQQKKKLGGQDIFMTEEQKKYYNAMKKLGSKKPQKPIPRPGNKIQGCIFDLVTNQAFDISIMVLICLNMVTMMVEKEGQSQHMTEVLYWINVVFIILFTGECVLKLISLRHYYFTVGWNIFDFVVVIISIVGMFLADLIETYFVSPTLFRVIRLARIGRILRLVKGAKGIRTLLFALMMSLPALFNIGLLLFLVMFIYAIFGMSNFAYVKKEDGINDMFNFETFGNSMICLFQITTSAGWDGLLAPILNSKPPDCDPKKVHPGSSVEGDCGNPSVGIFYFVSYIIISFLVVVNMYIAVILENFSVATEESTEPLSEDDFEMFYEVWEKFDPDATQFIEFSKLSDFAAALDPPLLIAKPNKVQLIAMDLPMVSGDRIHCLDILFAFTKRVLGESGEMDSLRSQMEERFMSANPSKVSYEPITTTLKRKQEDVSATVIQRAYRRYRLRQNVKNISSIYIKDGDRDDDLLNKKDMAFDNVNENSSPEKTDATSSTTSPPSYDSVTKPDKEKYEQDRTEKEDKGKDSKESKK
# NR2A = biological target: T12, NR2A (Homo sapiens, UniProt Q12879); assay: Ion channel panel (IonWorks Barracuda): NR2A; format: cell-based; conditions: 100% = no change, <100% = inhibition
# T12 construct: host or cells: HEK293 or CHO
# Summary of the method: as §1
# NR2B = biological target: T13, NR2B (Homo sapiens, UniProt Q13224); assay: Ion channel panel (IonWorks Barracuda): NR2B; format: cell-based; conditions: 100% = no change, <100% = inhibition
# T13 construct: host or cells: HEK293 or CHO
# Summary of the method: as §1
# TRPA1 = biological target: T14, TRPA1 (Homo sapiens, UniProt O75762); assay: Ion channel panel (IonWorks Barracuda): TRPA1; format: cell-based; conditions: 100% = no change, <100% = inhibition
# T14 construct: host or cells: HEK293 or CHO
# Summary of the method: as §1
# TRPV1 = biological target: T15, TRPV1 (Homo sapiens, UniProt Q8NER1); assay: Ion channel panel (IonWorks Barracuda): TRPV1; format: cell-based; conditions: 100% = no change, <100% = inhibition
# T15 construct: host or cells: HEK293 or CHO
# Summary of the method: as §1
# [1] = first of two Nav1.5 columns (probably TP1)
# [2] = second of two Nav1.5 columns (probably TP2)
# [3] = first of two Nav1.7 columns (probably TP1)
# [4] = second of two Nav1.7 columns (probably TP2)
substance,measurement,setting,value
10 (GSQVQTNVKCQGGSCASVCRREIGVAAGKCINGKCVCYRN) [compound 10],Activity of 5HT3a with peptide (percentage of the reference compound),5HT3a,104%
same,"Activity of 5HT3a with peptide, expressed as a percentage of the reference compound",5HT3a,90%
same,"Activity of a3b4 with peptide, expressed as a percentage of the reference compound",α3β4; peptide at 0.2 μM,97%
same,Activity of a3b4 with peptide (percentage of the reference compound),α3β4; peptide at 20 μM,104%
same,"Activity of a4b2 with peptide, expressed as a percentage of the reference compound",α4β2; peptide at 0.2 μM,96%
same,Activity of a4b2 with peptide (percentage of the reference compound),α4β2; peptide at 20 μM,94%
same,"Activity of Cav2.1 with peptide, expressed as a percentage of the reference compound",Cav2.1; peptide at 0.2 μM,104%
same,Activity of Cav2.1 with peptide (percentage of the reference compound),Cav2.1; peptide at 20 μM,96%
same,"Activity of Cav2.2 with peptide, expressed as a percentage of the reference compound",Cav2.2; peptide at 0.2 μM,98%
same,Activity of Cav2.2 with peptide (percentage of the reference compound),Cav2.2; peptide at 20 μM,94%
same,"Activity of Kv2.1 with peptide, expressed as a percentage of the reference compound",Kv2.1; peptide at 0.2 μM,88%
same,Activity of Kv2.1 with peptide (percentage of the reference compound),Kv2.1; peptide at 20 μM,109%
same,"Activity of GABA with peptide, expressed as a percentage of the reference compound",GABA; peptide at 0.2 μM,129%
same,Activity of GABA with peptide (percentage of the reference compound),GABA; peptide at 20 μM,111%
same,"Activity of Nav1.5 with peptide, expressed as a percentage of the reference compound",Nav1.5; [1],93%
same,"Activity of Nav1.5 with peptide, expressed as a percentage of the reference compound",Nav1.5; [2],90%
same,Activity of Nav1.5 with peptide (percentage of the reference compound),Nav1.5; [1],114%
same,Activity of Nav1.5 with peptide (percentage of the reference compound),Nav1.5; [2],116%
same,"Activity of hERG with peptide, expressed as a percentage of the reference compound",hERG; peptide at 0.2 μM,97%
same,Activity of hERG with peptide (percentage of the reference compound),hERG; peptide at 20 μM,80%
same,"Activity of Kir2.1 with peptide, expressed as a percentage of the reference compound",Kir2.1; peptide at 0.2 μM,100%
same,Activity of Kir2.1 with peptide (percentage of the reference compound),Kir2.1; peptide at 20 μM,92%
same,"Activity of Kv1.1 with peptide, expressed as a percentage of the reference compound",Kv1.1; peptide at 0.2 μM,117%
same,Activity of Kv1.1 with peptide (percentage of the reference compound),Kv1.1; peptide at 20 μM,84%
same,"Activity of Kv1.2 with peptide, expressed as a percentage of the reference compound",Kv1.2; peptide at 0.2 μM,135%
same,Activity of Kv1.2 with peptide (percentage of the reference compound),Kv1.2; peptide at 20 μM,77%
same,"Activity of Kv1.3 with peptide, expressed as a percentage of the reference compound",Kv1.3; peptide at 0.2 μM,101%
same,Activity of Kv1.3 with peptide (percentage of the reference compound),Kv1.3; peptide at 20 μM,93%
same,"Activity of Nav1.7 with peptide, expressed as a percentage of the reference compound",Nav1.7; [3],105%
same,"Activity of Nav1.7 with peptide, expressed as a percentage of the reference compound",Nav1.7; [4],98%
same,Activity of Nav1.7 with peptide (percentage of the reference compound),Nav1.7; [3],106%
same,Activity of Nav1.7 with peptide (percentage of the reference compound),Nav1.7; [4],90%
same,"Activity of NR2A with peptide, expressed as a percentage of the reference compound",NR2A; peptide at 0.2 μM,84%
same,Activity of NR2A with peptide (percentage of the reference compound),NR2A; peptide at 20 μM,65%
same,"Activity of NR2B with peptide, expressed as a percentage of the reference compound",NR2B; peptide at 0.2 μM,82%
same,Activity of NR2B with peptide (percentage of the reference compound),NR2B; peptide at 20 μM,98%
same,"Activity of TRPA1 with peptide, expressed as a percentage of the reference compound",TRPA1; peptide at 0.2 μM,108%
same,Activity of TRPA1 with peptide (percentage of the reference compound),TRPA1; peptide at 20 μM,107%
same,"Activity of TRPV1 with peptide, expressed as a percentage of the reference compound",TRPV1; peptide at 0.2 μM,111%
same,Activity of TRPV1 with peptide (percentage of the reference compound),TRPV1; peptide at 20 μM,98%
